B3: GST-Cdc20_(166-499) (GST-Cdc20^C) (domain or fragment, human, UniProt Q12834 166-499, looked up)
chain: RYIPSLPDRILDAPEIRNDYYLNLVDWSSGNVLAVALDNSVYLWSASSGDILQLLQMEQPGEYISSVAWIKEGNYLAVGTSSAEVQLWDVQQQKRLRNMTSHSARVGSLSWNSYILSSGSRSGHIHHHDVRVAEHHVATLSGHSQEVCGLRWAPDGRHLASGGNDNLVNVWPSAPGEGGWVPLQTFTQHQGAVKAVAWCPWQSNVLATGGGTSDRHIRIWNVCSGACLSAVDAHSQVCSILWSPHYKELISGHGFAQNQLVIWKYPTMAKVAELKGHTSRVLSLTMSPDGATVASAAADETLRLWRCFELDPARRREREKASAAKSSLIHQGIR
B4: Cdc20^C (Cdc20_(166-499), free in solution) (domain or fragment, human, UniProt Q12834 166-499, looked up)
chain: RYIPSLPDRILDAPEIRNDYYLNLVDWSSGNVLAVALDNSVYLWSASSGDILQLLQMEQPGEYISSVAWIKEGNYLAVGTSSAEVQLWDVQQQKRLRNMTSHSARVGSLSWNSYILSSGSRSGHIHHHDVRVAEHHVATLSGHSQEVCGLRWAPDGRHLASGGNDNLVNVWPSAPGEGGWVPLQTFTQHQGAVKAVAWCPWQSNVLATGGGTSDRHIRIWNVCSGACLSAVDAHSQVCSILWSPHYKELISGHGFAQNQLVIWKYPTMAKVAELKGHTSRVLSLTMSPDGATVASAAADETLRLWRCFELDPARRREREKASAAKSSLIHQGIR

What all share (test): pull-down
The target in assay [1] is B3.
In assay [2] the target is B4.
The next assay deals with BubR1_(1-363) (human, UniProt O60566 1-363).
The target of a further assay is GST-BubR1^N (human, UniProt O60566 1-477).
For assay [3], the target named is Cdc20 (full length, Cdc20^FL) (human, UniProt Q12834 1-499).

Experimental findings from paper PMC3713096 (Molecular cell, 2013) are described below.

B1: Cdc20_(1-163) (Cdc20^N) (domain or fragment, human, UniProt Q12834 1-163, looked up)
chain: MAQFAFESDLHSLLQLDAPIPNAPPARWQRKAKEAAGPAPSPMRAANRSHSAGRTPGRTPGKSSSKVQTTPSKPGGDRYIPHRSAAQMEVASFLLSKENQPENSQTPTKKEHQKAWALNLNGFDVEEAKILRLSGKPQNAPEGYQNRLKVLYSQKATPGSSRK
Regarding B1, the binding result in assay [1] is reported as “binds”.

B2: GST-Cdc20^N (domain or fragment, human, UniProt Q12834 1-163, looked up)
chain: MAQFAFESDLHSLLQLDAPIPNAPPARWQRKAKEAAGPAPSPMRAANRSHSAGRTPGRTPGKSSSKVQTTPSKPGGDRYIPHRSAAQMEVASFLLSKENQPENSQTPTKKEHQKAWALNLNGFDVEEAKILRLSGKPQNAPEGYQNRLKVLYSQKATPGSSRK
Regarding B2, in assay [2], the binding result is given as “binds”.

Take B3: the binding result with BubR1_(1-363) is “binds”.

For B4, the binding result with GST-BubR1^N is given as “binds”.

B5: BubR1_(1-477) (BubR1^N) (domain or fragment, human, UniProt O60566 1-477, looked up)
chain: MAAVKKEGGALSEAMSLEGDEWELSKENVQPLRQGRIMSTLQGALAQESACNNTLQQQKRAFEYEIRFYTGNDPLDVWDRYISWTEQNYPQGGKESNMSTLLERAVEALQGEKRYYSDPRFLNLWLKLGRLCNEPLDMYSYLHNQGIGVSLAQFYISWAEEYEARENFRKADAIFQEGIQQKAEPLERLQSQHRQFQARVSRQTLLALEKEEEEEVFESSVPQRSTLAELKSKGKKTARAPIIRVGGALKAPSQNRGLQNPFPQQMQNNSRITVFDENADEASTAELSKPTVQPWIAPPMPRAKENELQAGPWNTGRSLEHRPRGNTASLIAVPAVLPSFTPYVEETARQPVMTPCKIEPSINHILSTRKPGKEEGDPLQRVQSHQQASEEKKEKMMYCKEKIYAGVGEFSFEEIRAEVFRKKLKEQREAELLTSAEKRAEMQKQIEEMEKKLKEIQTTQQERTGDQQEETMPTKET
With B5, the “fold increase of association with Mad2 against without Mad2” value in assay [3] is ~6 fold.
